T1: PUF4 RNA-binding domain (Saccharomyces cerevisiae, UniProt P25339 537-888)
T1 sequence: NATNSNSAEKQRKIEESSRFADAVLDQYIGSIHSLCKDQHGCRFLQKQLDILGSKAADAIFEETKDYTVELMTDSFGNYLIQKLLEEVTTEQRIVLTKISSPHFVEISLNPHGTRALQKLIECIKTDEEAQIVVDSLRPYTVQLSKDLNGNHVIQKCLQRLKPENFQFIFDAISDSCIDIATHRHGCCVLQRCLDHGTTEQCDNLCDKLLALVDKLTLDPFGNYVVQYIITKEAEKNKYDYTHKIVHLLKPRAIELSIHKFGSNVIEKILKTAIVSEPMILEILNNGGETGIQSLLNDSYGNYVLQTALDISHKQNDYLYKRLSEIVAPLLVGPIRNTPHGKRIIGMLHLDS


Target: T1, PUF4 RNA-binding domain
Assay: Mg; RNA-MaP; 20 mM Na-HEPES pH 7.4, 30 mM KOAc, 0.75 mM MgCl2, 0.1% Tween-20, 5% glycerol, 0.1 mg/mL BSA, 2 mM DTT; 25 C; 0.0125-409.6 nM protein
Settings: tags: N-His6-TEV cleaved; C-SNAP kept, Cy3B-labelled; label: tethered on chip by stalled RNA polymerase

Row | Binder | Kd
1 | UCUCUUUGUGUAUUCUCUCUU (ssRNA) [Ib_S1_P4E.1_K4.1_C4.1_H4.1_[A4G]_A4.1_F4.1_[A9C]_T4.1] | 40.4 nM
2 | UCUCUUUGUCUAUUCUCUCUU (ssRNA) [Ib_S1_P4E.1_K4.1_C4.1_H4.1_[A4C]_A4.1_F4.1_[A9C]_T4.1] | 1920 nM
3 | UCUCUUUGUUUAUUGUCUCUU (ssRNA) [Ib_S1_P4E.1_K4.1_C4.1_H4.1_[A4T]_A4.1_F4.1_[A9G]_T4.1] | 163 nM
4 | Ic_S4_P4E.1_K4.1_C4.1_H4.1_A4.1_[T5G]_[A6C]_[T7G]_F4.1_[T8G]_[A9C]_T4.1 (ssRNA) RNA: UUUGACAACUGAUCGUUCUUUCUUGUAGCGGCUUCUUUCUCGAUCAGUUGUCUUU | > 2300 nM
5 | Ic_S4_P4E.1_K4.1_C4.1_H4.1_A4.1_[T5G]_[A6C]_[T7C]_F4.1_[T8C]_[A9G]_T4.1 (ssRNA) RNA: UUUGACAACUGAUCGUUCUUUCUUGUAGCCCGUUCUUUCUCGAUCAGUUGUCUUU | 1440 nM
6 | Ic_S4_P4E.1_K4.1_C4.1_H4.1_A4.1_[T5G]_[A6C]_[T7C]_F4.1_[T8C]_[A9C]_T4.1 (ssRNA) RNA: UUUGACAACUGAUCGUUCUUUCUUGUAGCCCCUUCUUUCUCGAUCAGUUGUCUUU | 786 nM
7 | Ic_S4_P4E.1_K4.1_C4.1_H4.1_A4.1_[T5G]_[A6C]_[T7C]_F4.1_[T8A]_[A9T]_T4.1 (ssRNA) RNA: UUUGACAACUGAUCGUUCUUUCUUGUAGCCAUUUCUUUCUCGAUCAGUUGUCUUU | 428 nM
8 | Ic_S4_P4E.1_K4.1_C4.1_H4.1_A4.1_[T5G]_[A6C]_[T7G]_F4.1_[T8C]_[A9C]_T4.1 (ssRNA) RNA: UUUGACAACUGAUCGUUCUUUCUUGUAGCGCCUUCUUUCUCGAUCAGUUGUCUUU | 1050 nM
9 | Ic_S4_P4E.1_K4.1_C4.1_H4.1_A4.1_[T5G]_[A6C]_[T7A]_F4.1_[T8A]_[A9C]_T4.1 (ssRNA) RNA: UUUGACAACUGAUCGUUCUUUCUUGUAGCAACUUCUUUCUCGAUCAGUUGUCUUU | 1350 nM
10 | Ic_S4_P4E.1_K4.1_C4.1_H4.1_A4.1_[T5G]_[A6C]_[T7A]_F4.1_[T8C]_T4.1 (ssRNA) RNA: UUUGACAACUGAUCGUUCUUUCUUGUAGCACAUUCUUUCUCGAUCAGUUGUCUUU | 772 nM
11 | Ic_S4_P4E.1_K4.1_C4.1_H4.1_A4.1_[T5G]_[A6C]_[T7C]_F4.1_[T8C]_T4.1 (ssRNA) RNA: UUUGACAACUGAUCGUUCUUUCUUGUAGCCCAUUCUUUCUCGAUCAGUUGUCUUU | 997 nM
12 | Ic_S4_P4E.1_K4.1_C4.1_H4.1_A4.1_[T5G]_[A6C]_[T7C]_F4.1_[T8A]_T4.1 (ssRNA) RNA: UUUGACAACUGAUCGUUCUUUCUUGUAGCCAAUUCUUUCUCGAUCAGUUGUCUUU | 780 nM
13 | Ic_S4_P4E.1_K4.1_C4.1_H4.1_A4.1_[T5G]_[A6C]_[T7A]_F4.1_[A9G]_T4.1 (ssRNA) RNA: UUUGACAACUGAUCGUUCUUUCUUGUAGCAUGUUCUUUCUCGAUCAGUUGUCUUU | 51.3 nM
14 | Ic_S4_P4E.1_K4.1_C4.1_H4.1_A4.1_[T5G]_[A6C]_[T7C]_F4.1_[A9C]_T4.1 (ssRNA) RNA: UUUGACAACUGAUCGUUCUUUCUUGUAGCCUCUUCUUUCUCGAUCAGUUGUCUUU | 747 nM
15 | Ic_S4_P4E.1_K4.1_C4.1_H4.1_A4.1_[T5G]_[A6C]_[T7A]_F4.1_[T8G]_[A9T]_T4.1 (ssRNA) RNA: UUUGACAACUGAUCGUUCUUUCUUGUAGCAGUUUCUUUCUCGAUCAGUUGUCUUU | 495 nM
16 | Ic_S4_P3E.1_K3.1_C3.1_H3.1_A3.1_[T5C]_F3.1_[T7C]_[A8C]_T3.1 (ssRNA) RNA: UUUGACAACUGAUCGUUCUUUCUUGUACACCUUCUUUCUCGAUCAGUUGUCUUU | 26.4 nM
17 | Ic_S4_P3E.1_K3.1_C3.1_H3.1_A3.1_[A6C]_F3.1_[T7C]_[A8T]_T3.1 (ssRNA) RNA: UUUGACAACUGAUCGUUCUUUCUUGUAUCCUUUCUUUCUCGAUCAGUUGUCUUU | 27.6 nM
18 | Ic_S4_P3E.1_K3.1_C3.1_H3.1_A3.1_[A6C]_F3.1_[A8G]_T3.1 (ssRNA) RNA: UUUGACAACUGAUCGUUCUUUCUUGUAUCUGUUCUUUCUCGAUCAGUUGUCUUU | 23.4 nM
19 | Ic_S4_P3E.1_K3.1_C3.1_H3.1_A3.1_[A6T]_F3.1_[T7A]_[A8C]_T3.1 (ssRNA) RNA: UUUGACAACUGAUCGUUCUUUCUUGUAUUACUUCUUUCUCGAUCAGUUGUCUUU | 123 nM
20 | Ic_S4_P3E.1_K3.1_C3.1_H3.1_A3.1_[A6T]_F3.1_T3.1 (ssRNA) RNA: UUUGACAACUGAUCGUUCUUUCUUGUAUUUAUUCUUUCUCGAUCAGUUGUCUUU | 15.3 nM
21 | Ic_S4_P3E.1_K3.1_C3.1_H3.1_A3.1_[A6T]_F3.1_[T7G]_[A8G]_T3.1 (ssRNA) RNA: UUUGACAACUGAUCGUUCUUUCUUGUAUUGGUUCUUUCUCGAUCAGUUGUCUUU | 2130 nM
22 | Ic_S4_P3E.1_K3.1_C3.1_H3.1_A3.1_[T5A]_[A6C]_F3.1_[T7A]_[A8C]_T3.1 (ssRNA) RNA: UUUGACAACUGAUCGUUCUUUCUUGUAACACUUCUUUCUCGAUCAGUUGUCUUU | 144 nM
23 | Ic_S4_P3E.1_K3.1_C3.1_H3.1_A3.1_[A6T]_F3.1_[A8G]_T3.1 (ssRNA) RNA: UUUGACAACUGAUCGUUCUUUCUUGUAUUUGUUCUUUCUCGAUCAGUUGUCUUU | 46.7 nM
24 | Ic_S4_P3E.1_K3.1_C3.1_H3.1_A3.1_[T5A]_[A6T]_F3.1_[T7A]_[A8C]_T3.1 (ssRNA) RNA: UUUGACAACUGAUCGUUCUUUCUUGUAAUACUUCUUUCUCGAUCAGUUGUCUUU | 226 nM
25 | Ic_S4_P3E.1_K3.1_C3.1_H3.1_A3.1_F3.1_[A8T]_T3.1 (ssRNA) RNA: UUUGACAACUGAUCGUUCUUUCUUGUAUAUUUUCUUUCUCGAUCAGUUGUCUUU | 3.03 nM

Row | Binder | Kd
26 | Ic_S4_P3E.1_K3.1_C3.1_H3.1_A3.1_[T5A]_[A6C]_F3.1_[A8T]_T3.1 (ssRNA) RNA: UUUGACAACUGAUCGUUCUUUCUUGUAACUUUUCUUUCUCGAUCAGUUGUCUUU | 21.6 nM
27 | Ic_S4_P3E.1_K3.1_C3.1_H3.1_A3.1_[T5A]_[A6C]_F3.1_[T7G]_[A8T]_T3.1 (ssRNA) RNA: UUUGACAACUGAUCGUUCUUUCUUGUAACGUUUCUUUCUCGAUCAGUUGUCUUU | 270 nM
28 | Ic_S4_P3E.1_K3.1_C3.1_H3.1_A3.1_[T5C]_F3.1_[A8T]_T3.1 (ssRNA) RNA: UUUGACAACUGAUCGUUCUUUCUUGUACAUUUUCUUUCUCGAUCAGUUGUCUUU | 2.28 nM
29 | Ic_S4_P3E.1_K3.1_C3.1_H3.1_A3.1_[T5A]_F3.1_[A8T]_T3.1 (ssRNA) RNA: UUUGACAACUGAUCGUUCUUUCUUGUAAAUUUUCUUUCUCGAUCAGUUGUCUUU | 19.3 nM
30 | Ic_S4_P3E.1_K3.1_C3.1_H3.1_A3.1_[A6T]_F3.1_[T7A]_[A8G]_T3.1 (ssRNA) RNA: UUUGACAACUGAUCGUUCUUUCUUGUAUUAGUUCUUUCUCGAUCAGUUGUCUUU | 944 nM
31 | Ic_S4_P3E.1_K3.1_C3.1_H3.1_A3.1_[A6G]_F3.1_[T7C]_[A8T]_T3.1 (ssRNA) RNA: UUUGACAACUGAUCGUUCUUUCUUGUAUGCUUUCUUUCUCGAUCAGUUGUCUUU | 54.5 nM
32 | Ic_S4_P3E.1_K3.1_C3.1_H3.1_A3.1_[A6C]_F3.1_[T7A]_[A8T]_T3.1 (ssRNA) RNA: UUUGACAACUGAUCGUUCUUUCUUGUAUCAUUUCUUUCUCGAUCAGUUGUCUUU | 8.55 nM
33 | Ic_S4_P3E.1_K3.1_C3.1_H3.1_A3.1_[A6C]_F3.1_[T7C]_[A8G]_T3.1 (ssRNA) RNA: UUUGACAACUGAUCGUUCUUUCUUGUAUCCGUUCUUUCUCGAUCAGUUGUCUUU | 392 nM
34 | Ic_S4_P3E.1_K3.1_C3.1_H3.1_A3.1_[T5A]_[A6C]_F3.1_[T7A]_[A8T]_T3.1 (ssRNA) RNA: UUUGACAACUGAUCGUUCUUUCUUGUAACAUUUCUUUCUCGAUCAGUUGUCUUU | 15.1 nM
35 | If_S4_P3E.1_K3.1_C3.1_H3.1_A3.1_F3.1_T3.1 (ssRNA) RNA: UUUGACAACUGAUCGUUCUUUCUUGUAUAUAUUCUUUCUCGAUCAGUUGUCUUU | 1.99 nM
36 | Ic_S4_P3E.1_K3.1_C3.1_H3.1_A3.1_F3.1_[T7G]_[A8T]_T3.1 (ssRNA) RNA: UUUGACAACUGAUCGUUCUUUCUUGUAUAGUUUCUUUCUCGAUCAGUUGUCUUU | 23.1 nM
37 | Ic_S4_P3E.1_K3.1_C3.1_H3.1_A3.1_[T5A]_[A6T]_F3.1_[A8G]_T3.1 (ssRNA) RNA: UUUGACAACUGAUCGUUCUUUCUUGUAAUUGUUCUUUCUCGAUCAGUUGUCUUU | 220 nM
38 | Ic_S4_P3E.1_K3.1_C3.1_H3.1_A3.1_[A6C]_F3.1_[T7G]_[A8G]_T3.1 (ssRNA) RNA: UUUGACAACUGAUCGUUCUUUCUUGUAUCGGUUCUUUCUCGAUCAGUUGUCUUU | 1930 nM
39 | Ic_S4_P3E.1_K3.1_C3.1_H3.1_A3.1_[A6G]_F3.1_T3.1 (ssRNA) RNA: UUUGACAACUGAUCGUUCUUUCUUGUAUGUAUUCUUUCUCGAUCAGUUGUCUUU | 27.4 nM
40 | Ic_S4_P3E.1_K3.1_C3.1_H3.1_A3.1_[T5A]_[A6T]_F3.1_[T7C]_[A8T]_T3.1 (ssRNA) RNA: UUUGACAACUGAUCGUUCUUUCUUGUAAUCUUUCUUUCUCGAUCAGUUGUCUUU | 18.3 nM
41 | Ic_S4_P3E.1_K3.1_C3.1_H3.1_A3.1_[T5C]_F3.1_[T7C]_[A8T]_T3.1 (ssRNA) RNA: UUUGACAACUGAUCGUUCUUUCUUGUACACUUUCUUUCUCGAUCAGUUGUCUUU | 5.34 nM
42 | Ic_S4_P3E.1_K3.1_C3.1_H3.1_A3.1_[T5C]_F3.1_[T7A]_T3.1 (ssRNA) RNA: UUUGACAACUGAUCGUUCUUUCUUGUACAAAUUCUUUCUCGAUCAGUUGUCUUU | 41.6 nM
43 | Ic_S4_P3E.1_K3.1_C3.1_H3.1_A3.1_[A6C]_F3.1_[T7G]_[A8T]_T3.1 (ssRNA) RNA: UUUGACAACUGAUCGUUCUUUCUUGUAUCGUUUCUUUCUCGAUCAGUUGUCUUU | 178 nM
44 | Ic_S4_P3E.1_K3.1_C3.1_H3.1_A3.1_[A6C]_F3.1_[T7A]_[A8C]_T3.1 (ssRNA) RNA: UUUGACAACUGAUCGUUCUUUCUUGUAUCACUUCUUUCUCGAUCAGUUGUCUUU | 80.4 nM
45 | Ic_S4_P3E.1_K3.1_C3.1_H3.1_A3.1_[T5A]_[A6T]_F3.1_T3.1 (ssRNA) RNA: UUUGACAACUGAUCGUUCUUUCUUGUAAUUAUUCUUUCUCGAUCAGUUGUCUUU | 65.6 nM
46 | Ic_S4_P3E.1_K3.1_C3.1_H3.1_A3.1_[T5A]_[A6C]_F3.1_[A8C]_T3.1 (ssRNA) RNA: UUUGACAACUGAUCGUUCUUUCUUGUAACUCUUCUUUCUCGAUCAGUUGUCUUU | 78.8 nM
47 | Ic_S4_P3E.1_K3.1_C3.1_H3.1_A3.1_[T5A]_[A6T]_F3.1_[T7A]_[A8G]_T3.1 (ssRNA) RNA: UUUGACAACUGAUCGUUCUUUCUUGUAAUAGUUCUUUCUCGAUCAGUUGUCUUU | 1240 nM
48 | Ic_S4_P3E.1_K3.1_C3.1_H3.1_A3.1_[T5A]_[A6T]_F3.1_[T7A]_T3.1 (ssRNA) RNA: UUUGACAACUGAUCGUUCUUUCUUGUAAUAAUUCUUUCUCGAUCAGUUGUCUUU | 126 nM
49 | UCUCUUUGUCUAUUGUCUCUU (ssRNA) [Ib_S1_P4E.1_K4.1_C4.1_H4.1_[A4C]_A4.1_F4.1_[A9G]_T4.1] | 569 nM

— article PMC9352680, “A comprehensive thermodynamic model for RNA binding by the Saccharomyces cerevisiae Pumilio protein PUF4”
